Assays:
[1] = target: T1, cynomolgus EpCAM antigen on transfected CHO cells (cynomolgus, UniProt Q1WER1 24-265 (rhesus entry)); test: FACS on cynomolgus EpCAM transfected CHO cells, anti-His detection
T1 construct: 48 holds the extracellular portion
T1 sequence: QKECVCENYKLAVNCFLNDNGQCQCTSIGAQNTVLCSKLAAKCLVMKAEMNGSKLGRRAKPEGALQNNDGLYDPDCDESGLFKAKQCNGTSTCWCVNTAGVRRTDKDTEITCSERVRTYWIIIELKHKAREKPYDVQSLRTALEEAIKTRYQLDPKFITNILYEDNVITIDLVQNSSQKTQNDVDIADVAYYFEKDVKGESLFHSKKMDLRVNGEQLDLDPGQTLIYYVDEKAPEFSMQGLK
Text: FIG. 8: FACS assay for binding of 2G8LH×SEQ ID NO. 12, 2G8LH×SEQ ID NO. 10, 2G8LH×SEQ ID NO. 16, 2G8LH×SEQ ID NO. 14, 2G8HL×SEQ ID NO. 12, 2G8HL×SEQ ID NO. 10, 2G8HL×SEQ ID NO. 16 and 2G8HL×SEQ ID NO. 14 on Kato III (FIG. 8A) cells or cynomolgus EpCAM transfected CHO cells (FIG. 8B) and HPB-ALL cells. Antigen binding was clearly detectable for the anti EpCAM specificities as well as for the anti CD3 specificities. As a negative control for binding to cynomolgus EpCAM, the 5-10LH×SEQ ID NO.
Binding of the bifunctional constructs from cell culture supernatants or binding of purified bifunctional constructs to the human EpCAM antigen on Kato III cells or cynomolgus EpCAM transfected CHO cells and to the CD3 antigen on HPB-ALL cells was tested using an FACS assay. For that purpose 2.5×10⁵ cells were incubated with 50 μl supernatant or with 5 μg/ml of the purified constructs in 50 μl PBS with 2% FCS. The binding of the constructs was detected with an anti-His antibody (Penta-His Antibody, BSA free, obtained from Qiagen GmbH, Hilden, FRG) at 2 μg/ml in 50 μl PBS with 2% FCS. […] The samples were measured on a FACSscan (BD biosciences, Heidelberg, FRG). Antigen binding was clearly detectable for the anti EpCAM specificities as well as for the anti CD3 specificities (see FIG. 8). As a negative control for binding to cynomolgus EpCAM, the 5-10LH×SEQ ID NO. […] The 5-10LH part only binds to human EpCAM.

[2] = target: T2, human EpCAM antigen on Kato III cells or human EpCAM transfected CHO cells (human, UniProt P16422 24-265); test: cell-based or functional assay
T2 sequence: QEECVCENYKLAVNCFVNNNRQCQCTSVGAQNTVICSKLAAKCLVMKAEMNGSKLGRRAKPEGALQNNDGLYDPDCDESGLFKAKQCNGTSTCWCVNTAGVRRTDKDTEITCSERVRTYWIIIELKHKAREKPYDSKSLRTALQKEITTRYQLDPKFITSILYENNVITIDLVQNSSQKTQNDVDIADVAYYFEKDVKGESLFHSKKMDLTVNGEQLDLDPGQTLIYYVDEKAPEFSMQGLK

[3] = target: cynomolgus CD3 antigen on cynomolgus PBMC / macaque T cells (Macaca fascicularis (cynomolgus), UniProt Q95LI5 22-117; Q95LI7 23-110; Q95LI8 22-103); test: cell-based or functional assay
[4] = target: T2, human EpCAM antigen on Kato III cells …; test: FACS, Kato III cells or human EpCAM transfected CHO cells, anti-His detection
Procedure: FIG. 3: FACS assay for binding of 5-10LH×SEQ ID NO. 12, 5-10LH×SEQ ID NO. 10, 5-10LH×SEQ ID NO. 16 and 5-10LH×SEQ ID NO. 14 to human Kato III cells expressing EpCAM or human EpCAM transfected CHO cells and to HPB-ALL cells. Cells bound by the respective constructs (depicted as non-filled curves) are shown in comparison to cells incubated only with the detection antibodies (depicted as filled curves). Antigen binding of all bispecific constructs was clearly detectable for the anti human EpCAM specificity as well as for the anti CD3 specificities on the HPB-ALL cell line positive for human CD3.
Binding of the bifunctional constructs to the EpCAM antigen on human Kato III cells expressing EpCAM (ATCC No. HTB-103) or on human EpCAM transfected CHO cells and to the human CD3 antigen on HPB-ALL cells was tested using an FACS assay. For that purpose 2.5×10⁵ cells were incubated with 50 μl of cell culture supernatant containing the construct. The binding of the construct was detected with an anti-His antibody (Penta-His Antibody, BSA free, obtained from Qiagen GmbH, Hilden, FRG) at 2 μg/ml in 50 μl PBS with 2% FCS. […] The samples were measured on a FACSscan (BD biosciences, Heidelberg, FRG). Antigen binding was clearly detectable for the anti human EpCAM specificity as well as for the anti CD3 specificities on the cell line positive for human CD3 (see FIG. 3).

[5] = target: T1, cynomolgus EpCAM antigen on transfected …; test: FACS on cynomolgus EpCAM transfected CHO cells against untransfected cells
Procedure: FIG. 7: FACS assay for the detection of the cynomolgus EpCAM antigen on transfected CHO cells. Supernatants of three different anti human EpCAM hybridomas (M79, 3B10, 2G8) were tested for binding.
To generate a cell line positive for cynomolgus EpCAM, a clone of the aforementioned coding sequence of the cynomolgus EpCAM antigen subcloned into pEFDHFR with a verified nucleotide sequence was transfected into DHFR deficient CHO cells for eukaryotic expression of the construct as described in Kaufmann R. J. (1990) Methods Enzymol. 185, 537-566). Gene amplification of the construct was induced by increasing concentrations of MTX to a final concentration of up to 500nM MTX. The transfected cells were then tested for expression of cynomolgus EpCAM using an FACS assay. For that purpose, a number of 2.5×10⁵ cells was incubated with 50 μl supernatant three different mouse anti human EpCAM hybridomas (M79—Fogler et al., Cancer Res. 48 (1988); p. 6303-8; 3B10—Passlick et al. Int. J. Cancer 87 (2000), p. 548-552; 2G8—Balzar et al., J. Mol. Med. 77 (1999), p. 699-712). […] The samples were measured on a FACSscan (BD biosciences, Heidelberg, FRG). The anti EpCAM antibody 2G8 was recognized as cross-species specific and the expression of cynomolgus EpCAM was confirmed (see FIG. 7).

[6] = target: T3, human CD3 antigen on HPB-ALL cells or human T cells (human, UniProt P07766 22-126; P09693 23-111; P04234 22-103); test: FACS, FITC-conjugated antibody on HPB-ALL cells
T3 construct: natural CD3 complex on cells (HPB-ALL, human PBMC T cells); also called human CD3 complex
Procedure: Binding of an Ig comprising SEQ ID NOs. 2 and 4, an Ig comprising SEQ ID NOs. 6 and 8 and mAb FN18 to the cynomolgus CD3 antigen on cynomolgus PBMC and to the human CD3 antigen on HPB-ALL cells (DSMZ No. ACC 483) was tested using an FACS assay. For that purpose, 2.5×10⁵ cells were incubated with the FITC-conjugated Ig comprising SEQ ID NOs. 6 and 8 and the FITC-conjugated Ig comprising SEQ ID NOs. 2 and 4 diluted 1:25 in 50 μl PBS with 2% FCS, respectively. The incubation with the FITC-conjugated mAb FN18 antibody (Biosource International) was performed in 50 μl of undiluted antibody. The samples were measured on a FACSscan (BD biosciences, Heidelberg, FRG). Strong antigen binding on human as well as on cynomolgus cells was detected for the Ig comprising SEQ ID NOs. 2 and 4. For the Ig comprising SEQ ID NOs. 6 and 8, strong binding to human cells but weaker binding to cynomolgus cells was observed. For FN18, strong binding to cynomolgus cells could be observed whereas no binding to human cells could be detected.

Sequence of cynomolgus CD3 antigen on cynomolgus PBMC / macaque T cells (Q95LI5 22-117, chain 1 of 3): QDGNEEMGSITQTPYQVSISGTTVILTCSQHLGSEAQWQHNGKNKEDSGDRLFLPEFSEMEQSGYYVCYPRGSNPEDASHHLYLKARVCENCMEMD
Sequence of cynomolgus CD3 antigen on cynomolgus PBMC / macaque T cells (Q95LI7 23-110, chain 2 of 3): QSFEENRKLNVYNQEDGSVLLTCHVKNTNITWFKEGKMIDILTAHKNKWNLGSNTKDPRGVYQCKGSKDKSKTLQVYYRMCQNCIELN
Sequence of cynomolgus CD3 antigen on cynomolgus PBMC / macaque T cells (Q95LI8 22-103, chain 3 of 3): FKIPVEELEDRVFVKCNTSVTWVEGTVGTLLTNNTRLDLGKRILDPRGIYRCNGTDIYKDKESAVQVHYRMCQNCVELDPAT
T3 sequence (P07766 22-126 limits assumed, chain 1 of 3): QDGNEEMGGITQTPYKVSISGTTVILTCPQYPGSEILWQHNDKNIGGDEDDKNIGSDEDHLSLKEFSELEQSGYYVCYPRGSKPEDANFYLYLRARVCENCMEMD
T3 sequence (P09693 23-111 limits assumed, chain 2 of 3): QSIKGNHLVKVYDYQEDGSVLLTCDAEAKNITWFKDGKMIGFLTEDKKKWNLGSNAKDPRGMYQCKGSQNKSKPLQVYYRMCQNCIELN
T3 sequence (P04234 22-103 limits assumed, chain 3 of 3): as the sequence (Q95LI8 22-103, chain 3 of 3) above, with V5I, K15N, V20I, T32S, N33D, N34I, A64T, N74S counted along it

B1: 5-10LH×SEQ ID NO. 10 bispecific single chain antibody (bispecific antibody)
chain: ELVMTQSPSSLTVTAGEKVTMSCKSSQSLLNSGNQKNYLTWYQQKPGQPPKLLIYWASTRESGVPDRFTGSGSGTDFTLTISSVQAEDLAVYYCQNDYSYPLTFGAGTKLEIKGGGGSGGGGSGGGGSEVQLLEQSGAELVRPGTSVKISCKASGYAFTNYWLGWVKQRPGHGLEWIGDIFPGSGNIHYNEKFKGKATLTADKSSSTAYMQLSSLTFEDSAVYFCARLRNWDEPMDYWGQGTTVTVSSGGGGSEVKLLESGGGLVQPKGSLKLSCAASGFTFNTYAMNWVRQAPGKGLEWVARIRSKYNNYATYYADSVKDRFTISRDDSQSILYLQMNNLKTEDTAMYYCVRHGNFGNSYVSWFAYWGQGTLVTVSAGGGGSGGGGSGGGGSQAVVTQESALTTSPGETVTLTCRSSTGAVTTSNYANWVQEKPDHLFTGLIGGTNKRAPGVPARFSGSLIGDKAALTITGAQTEDEAIYFCALWYSNLWVFGGGTKLTVLHHHHHH
binding result [1]: no binding (tested: 50 µl supernatant or 5 µg/ml) | EC50 (half maximal killing), FACS-based cytotoxicity, Kato III target cells, human PBMC effector cells [2]: 0.0058 ng/mL | EC50 (half maximal killing), FACS-based cytotoxicity, Kato III target cells, cynomolgus PBMC effector cells [3]: 0.052 ng/mL

B2: 5-10LH×SEQ ID NO. 16 bispecific single chain antibody (bispecific antibody)
chain: ELVMTQSPSSLTVTAGEKVTMSCKSSQSLLNSGNQKNYLTWYQQKPGQPPKLLIYWASTRESGVPDRFTGSGSGTDFTLTISSVQAEDLAVYYCQNDYSYPLTFGAGTKLEIKGGGGSGGGGSGGGGSEVQLLEQSGAELVRPGTSVKISCKASGYAFTNYWLGWVKQRPGHGLEWIGDIFPGSGNIHYNEKFKGKATLTADKSSSTAYMQLSSLTFEDSAVYFCARLRNWDEPMDYWGQGTTVTVSSGGGGSQVVLTQSPAIMSAFPGEKVTMTCSASSSVSYMNWYQQKSGTSPKRWIYDSSKLASGVPARFSGSGSGTSYSLTISSMETEDAATYYCQQWSRNPPTFGGGTKLQITGGGGSGGGGSGGGGSQVQLQQSGAELARPGASVKMSCKASGYTFTRSTMHWVKQRPGQGLEWIGYINPSSAYTNYNQKFKDKATLTADKSSSTAYMQLSSLTSEDSAVYYCASPQVHYDYNGFPYWGQGTLVTVSAHHHHHH
binding result [4]: binds

B3: anti EpCAM antibody 2G8 (antibody, V domains shown)
VH: EVQLQQSGAELVRSGASVKLSCTASGFNIKDYYLHWVKQRPEQGLEWIAWIDLENGDIKYAPKFQGKATITADTSSNTAYLQLSSLTSEDTAVYYCNPYYYGSNYDYAMDYWGQGTSVTVSS
VL: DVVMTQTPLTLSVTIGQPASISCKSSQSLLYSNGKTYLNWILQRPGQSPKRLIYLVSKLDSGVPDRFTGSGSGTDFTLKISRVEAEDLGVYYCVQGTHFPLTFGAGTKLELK
notes: mouse hybridoma supernatant; also called 2G8 hybridoma
binding result [5]: binds

B4: monoclonal antibody (mAb) FN-18 (antibody, V domains shown)
VH: QVQLQQSEAELARPGASVKMSCKASGYTFTDYTIHWLKQRPGQGLDWIGYFNPSSESTEYNRKFKDRTILTADRSSTTAYMQLSSLTSEDSAVYYCSRKGEKLLGNRYWYFDVWGAGTSVTVSS
VL: DIVMSQSPSSLAVSVGEKVTMSCKSSQSLLYSSNQKNYLAWYQQKPGQSPKLLINWASTRESGVPDRFTGSGSRTDFTLTISSVKAEDLAVYFCQQFYSYPPTFGGGTKLEIK
notes: tested as bought FITC-conjugated antibody (Biosource International)
binding result [6]: no binding (tested: 50 µl of undiluted antibody)

Reference: patent publication US20090252683A1 (Amgen, published 2009)
